Results on 1 substance are retold here after PMC8978962.

This assay deals with CitbHLH2-YFPN (citrus).

As to CitMYB52-YFPC (natural protein), the CitALMT promoter activity (LUC/REN, dual-luciferase assay in tobacco leaves) with the combination of CitMYB52 and CitbHLH2, against the empty vector SK set as 1 was found to be 9.8 fold.
